In experiment [1] the target is T1, human CLDN6 fused to GFP, expressed on engineered HEK293T cells (HEK293T-CLDN6-mGFP) (human, UniProt P56747 1-220).
T1 construct: It calls residues 1-21 a signal peptide; also called Claudin-6; HEK293T-CLDN6-mGFP Artificial CLDN6+; not shown: mGFP tag
T1 sequence: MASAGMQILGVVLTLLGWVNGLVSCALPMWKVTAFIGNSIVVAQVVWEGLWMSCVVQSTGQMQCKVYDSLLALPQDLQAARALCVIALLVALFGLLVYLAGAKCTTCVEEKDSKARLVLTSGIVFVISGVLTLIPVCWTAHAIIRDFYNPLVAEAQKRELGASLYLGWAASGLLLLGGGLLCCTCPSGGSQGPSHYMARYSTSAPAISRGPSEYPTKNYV
Nature of the experiment: FACS, AF647-labelled mAb, HEK293T-CLDN6-mGFP cells. The protocol: Antibodies were purified and cell surface binding of the antibodies to CLDN6 and the antibody IC₅₀ were determined by FACS in which CLDN6 antibodies were directly conjugated with Alexa Fluor® 647 NHS Ester (Succinimidyl Ester), Cat #A20106 (ThermoFisher Scientific) following the manufacturer's protocol. CLDN6 antibodies were tested from 0.32 nM to 1000 nM (serial dilution 1:5, 6 points) in a 50 μl volume with 150,000 cells system.
CLDN6-expressing cells were used in FACS assays to determine the CLDN6 antibody's ability to bind to CLDN6 on the surface of cells and to cross-react with other CLDN family members. HEK293 T cells engineered to express human CLDN6 fused to GFP, mouse CLDN6 fused to GFP, CLDN9-GFP, CLDN4-GFP, or CLDN3-GFP, or GFP alone (without CLDN6) were used as artificial models of CLDN6 expression. ARK2, OVCA429, LS513 and MCF7 cells were used as endogenous models of CLDN6 expression, as well as models for CLDN3/4 expression.
For each type of cell tested and for each mAb, cells were detached from the surface of the culture flasks by EDTA (instead of trypsin) in order to protect the cell surface proteins. The detached cells were then incubated with Alexa Fluor®-labeled CLDN6 mAbs for 30 min in the dark on ice at a pre-determined concentration. The CLDN6 mAbs were directly labeled with Alexa Fluor® 647 NHS Ester (Succinimidyl Ester). After washing, the cells were read by a BD Accuri™ Flow Cytometer C6 to detect antibody-antigen protein binding in channel FL4H. Each antibody was tested at varied concentrations to establish a dose-fluorescence curve. The EC50/IC50 of the antibodies (the concentration of the antibody at which half the max value were calculated based on the values of FL4H (gated in viable singlet cells) using the Very Simple IC50 Tool kit available online which allows biological dose-response data to be plotted and fitted to curve types to give the EC50/IC50. The max value was the lowest concentration of the antibody at which fluorescence maxes out. The antibodies were also screened for their ability to cross-react with other CLDN proteins such as CLDN9, CLDN3, and CLDN4. These values were used to determine each antibody's relative affinity among the set of antibodies tested. Cross-reactivity data were obtained using a similar methodology, but with cells having a different expression profile for CLDN6, CLDN3, CLDN4 and CLDN9.

Experiment [2] deals with T1, human CLDN6 fused to GFP, expressed on …. Nature of the experiment: FACS, 1.5 µg Ab, 293T clone with human CLDN6. In outline: (§1)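 Relative antigen binding strength of humanized antibodies was taken from flow cytometry fluorescence, using 293T clones engineered to express human CLDN6. Each antibody, labelled with Alexa Fluor 647 NHS ester and used at 0.3 µg or 1.5 µg, was incubated with EDTA-detached cells for 30 min on ice in the dark before washing and reading on a BD Accuri C6 (channel FL4H).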

For experiment [3] the target is unchanged. Nature of the experiment: FACS, 0.3 µg Ab, 293T clone with human CLDN6. In outline: as §1
For orientation: In flow cytometry, cells or beads pass a laser one at a time.

For experiment [4], the target named is T2, CLDN6 endogenously expressed by human cancer cell lines (ARK2, OVCA429) (human, UniProt P56747 1-220).
T2 construct: Untagged endogenous protein; also called Endogenous CLDN6+
T2 sequence: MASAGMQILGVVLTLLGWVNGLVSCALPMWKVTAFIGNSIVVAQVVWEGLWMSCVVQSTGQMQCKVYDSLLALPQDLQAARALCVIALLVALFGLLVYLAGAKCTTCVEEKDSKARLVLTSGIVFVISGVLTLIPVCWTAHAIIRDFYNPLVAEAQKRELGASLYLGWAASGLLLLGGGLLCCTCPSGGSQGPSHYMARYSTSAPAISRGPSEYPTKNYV
Nature of the experiment: FACS, 1.5 µg Ab, OVCA429 cells.

Experiment [5] has as its target T2, CLDN6 endogenously expressed by human …. Nature of the experiment: FACS, 1.5 µg Ab, ARK2 cells. The protocol:
(§2) FACS assays were also carried out to determine relative antigen binding strengths of the humanized antibodies (at either 1.5 μg or 0.3 μg) for binding to CLDN6 as expressed by the indicated cancer cell lines. 2nd Ab only was used as a negative control.

The target is the same in experiment [6]. Nature of the experiment: FACS, 0.3 µg Ab, ARK2 cells. Here is the method: as §2

A value given as a limit tells only on which side of the number the result lay.

Drawing on patent US20250333501A1 (University of California, published 2025), this text covers EC50 and FACS fluorescence for eleven molecules.

Usually EC50 stands for the concentration that produces a half-maximal response. Read a low EC50 as higher potency in that assay.

B1: AB16 (antibody, V domains shown)
VH: EVRLVESGGGLMQPGGSLKLPCAASGFPFSSSAMSWVRQTPEKRLEWVASINSDGNTYYPDSVKGRFTISRDSARNILYLQMSSLRSEDTAMYYCTRNGDYRYDEFAYWGQGTLVTVSA
VL: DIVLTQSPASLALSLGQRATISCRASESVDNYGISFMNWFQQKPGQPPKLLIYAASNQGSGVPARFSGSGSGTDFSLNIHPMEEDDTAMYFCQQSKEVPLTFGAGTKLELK
notes: Labelled with Alexa Fluor 647 NHS ester for FACS
B1 registered an EC50 in experiment [1] of at least 5000 nM.

B2: AB11-chim (antibody, V domains shown)
VH: DVQLVESGGGLVQPRGSRKLSCAASGFTFSSFGMHWVRQAPEKGLEWVAYISSDSRTIYYADTVKGRFTISRDNPTNTLFLQMTSLRSEDTAMYYCARDYGRTYEAYWGQGTLVTVSA
VL: DIVLTQSPASLAVSLGQRATISCRASKSVSTSGYSYIHWYQQKPGQPPKLLIYLASNLESGVPARFSGSGSGTDFTLNIHPVEEEDAATYYCQHSRELPLTFGAGTKLELK
notes: 'chim' is the pre-humanized form (parental variable regions); also called pre-humanized (chimeric) form of AB11
Turning to B2, the FACS fluorescence was determined as 3490 in experiment [2]; 1670 in experiment [3]; 2440 in experiment [4]; 1260 in experiment [5]; 1320 in experiment [6].

B3: AB9-3 (antibody, V domains shown)
VH: QVQLVQSGAEVKKPGASVKMSCKASGYRFTDYNMHWVRQAPGQGLEWIGYINPNNGGTNYAQKFQGRATLTVDTSTSTAYMELSSLRSEDTAVYYCARDYLYFFDCWGQGTLLTVSS
VL: DIQMTQSPSSLSASVGDRVTITCLASQTIGTWLAWYQQKPGKAPKLLIYAAASLADGVPSRFSGSGSGTDFTFTISSLQPEDFVTYYCQQLYSIPRTFGQGTKLEIK
notes: also called Humanized AB 9-3
Turning to B3, the FACS fluorescence in experiment [2] turned out to be 24600; in experiment [3], 9500; in experiment [4], 1260; in experiment [5], 1470; in experiment [6], 1140.

B4: AB9-4 (antibody, V domains shown)
VH: QVQLVQSGAEVKKPGASVKMSCKASGYRFTDYNMHWVRQAPGQGLEWIGYINPNNGGTNYAQKFQGRATLTVDTSTSTAYMELSSLRSEDTAVYYCARDYLYFFDCWGQGTLLTVSS
VL: DIQMTQSPSSLSASVGDRVTITCRASQTIGTWLAWYQQKPGKAPKLLIYAAASLADGVPSRFSGSGSGTDFTFTISSLQPEDFVTYYCQQLYSIPRTFGQGTKLEIK
notes: also called Humanized AB 9-4
With B4, the FACS fluorescence was found to be 34300 in experiment [2]; 15300 in experiment [3]; 1110 in experiment [4]; 1550 in experiment [5]; 1120 in experiment [6].

B5: AB18-4 (antibody, V domains shown)
VH: QVQLVQSGAEVKKPGASVKVSCKASGYSFTGYNMNWVRQAPGQGLEWMGNIDPYYGGSTYAQKFQGRVTMTVDTSTSTVYMELSSLRSEDTAVYYCARERSGYVFSAMDYWGQGTLVTVSS
VL: DIVMTQSPDSLAVSLGERVTMNCKSSQSVLFSSNQKNYLAWYQQKPGQPPKLLIYWASTRESGVPDRFSGSGSGTDFTLTISSVQAEDVAVYYCHQYLSSRTFGQGTKLEIK
notes: also called Humanized AB 18-4
As for B5, the FACS fluorescence in experiment [2] worked out at 54400; in experiment [3] it was 32400; in experiment [4], 3220; in experiment [5], 1380; in experiment [6] it was 1130.

B6: AB18-5 (antibody, V domains shown)
VH: QVQLVQSGAEVKKPGASVKISCKASGYSFTGYNMNWVRQAPGQGLEWIGNIDPYYGGSTYAQKFQGRATLTVDTSTSTAYMELSSLRSEDTAVYYCARERSGYVFSAMDYWGQGTLVTVSS
VL: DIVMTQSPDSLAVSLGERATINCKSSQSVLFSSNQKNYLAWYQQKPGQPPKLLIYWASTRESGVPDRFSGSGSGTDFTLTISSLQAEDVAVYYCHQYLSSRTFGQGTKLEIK
notes: also called Humanized AB 18-5
Regarding B6, the FACS fluorescence was 51900 in experiment [2]; 29400 in experiment [3]; 4270 in experiment [4]; 1330 in experiment [5]; 1310 in experiment [6].

B7: AB18-6 (antibody, V domains shown)
VH: QVQLVQSGAEVKKPGASVKISCKASGYSFTGYNMNWVRQAPGQGLEWIGNIDPYYGGSTYAQKFQGRATLTVDTSTSTAYMELSSLRSEDTAVYYCARERSGYVFSAMDYWGQGTLVTVSS
VL: DIVMTQSPDSLAVSLGERVTMNCKSSQSVLFSSNQKNYLAWYQQKPGQPPKLLIYWASTRESGVPDRFSGSGSGTDFTLTISSVQAEDVAVYYCHQYLSSRTFGQGTKLEIK
notes: also called Humanized AB 18-6
With B7, the FACS fluorescence in experiment [2] was 58500; in experiment [3], 26900; in experiment [4] it was 6750; in experiment [5] it was 1940; in experiment [6] it was 1390.

B8: AB11-2 (antibody, V domains shown)
VH: EVQLVESGGGLVQPGGSLRLSCAASGFTFSSFGMHWVRQAPGKGLEWVAYISSDSRTIYYADSVKGRFTISRDNAKNSLYLQMNSLRAEDTAVYYCARDYGRTYEAYWGQGTLVTVSS
VL: DIVMTQSPDSLAVSLGERATINCRASKSVSTSGYSYIHWYQQKPGQPPKLLIYLASNLESGVPDRFSGSGSGTDFTLTISSLQAEDVAVYYCQHSRELPLTFGQGTKLEIK
notes: also called Humanized AB 11-2
In the case of B8, the FACS fluorescence in experiment [2] is 2560; in experiment [3], 1290; in experiment [4], 2690; in experiment [5] it was 1940; in experiment [6] it was 1400.

B9: AB11-3 (antibody, V domains shown)
VH: EVQLVESGGGLVQPGGSLRLSCAASGFTFSSFGMHWVRQAPGKGLEWVAYISSDSRTIYYADSVKGRFTISRDNAKNSLYLQMNSLRAEDTAVYYCARDYGRTYEAYWGQGTLVTVSS
VL: DIVLTQSPDSLAVSLGERATINCRASKSVSTSGYSYIHWYQQKPGQPPKLLIYLASNLESGVPDRFSGSGSGTDFTLTISSVQAEDVAVYYCQHSRELPLTFGQGTKLELK
notes: also called Humanized AB 11-3
B9: the FACS fluorescence in experiment [2] is 2360; in experiment [3], 1010; in experiment [4], 2200; in experiment [5], 1540; in experiment [6], 1320.

B10: AB9-chim (antibody, V domains shown)
VH: EVQLQQSGPELVKPGASVKMSCKASGYRFTDYNMHWVKQSHGKSLEWIGYINPNNGGTNYNQNFKGKATLTVNKSSSTAYMELRSLTSEDSAAYYCARDYLYFFDCWGQGTTLTVSS
VL: DIQMTQSPASQSASLGESVTITCLASQTIGTWLAWYQQKPGKSPQLLIYAAASLADGVPSRFSGSGSGTRFSFKISSLQAEDFVSYYCQQLYSIPRTFGGGTKLEIK
notes: 'chim' is the pre-humanized form (parental variable regions); also called pre-humanized (chimeric) form of AB9
As to B10, the FACS fluorescence came to 72000 in experiment [2]; 46700 in experiment [3]; 3570 in experiment [4]; 4490 in experiment [5]; 3510 in experiment [6].

B11: AB17 (antibody, V domains shown)
VH: QVQLQQSGAELAKPGASVKMSCKASGYTFTGYWMHWVKQRPGQGLEWLGYINPSTGYTESNQKFKDKATLTADKSSTTAYMQLRSLTPEDSAVYYCAREGITTVLVDYWGQGTTLTVSS
VL: QIVLTQSPAIMSASLGERVTMTCTASSSVSSSYLHWYQQKPGSSPKLWIYSTSNLASGVPARFSGSGSGTSYSLTISSMEAEDAATYYCHQYHRSPPTFGAGTKLELK
notes: as for B1
Molecule B11 came in with an EC50 in experiment [1] of 2650 nM.
